Data as given in patent US20120178908A1 (Novo Nordisk, published 2012).

T1: TLT-1 18-188 relipidated in 20:80 PS:PC vesicles (human, UniProt Q86YW5 18-188)
T1 sequence: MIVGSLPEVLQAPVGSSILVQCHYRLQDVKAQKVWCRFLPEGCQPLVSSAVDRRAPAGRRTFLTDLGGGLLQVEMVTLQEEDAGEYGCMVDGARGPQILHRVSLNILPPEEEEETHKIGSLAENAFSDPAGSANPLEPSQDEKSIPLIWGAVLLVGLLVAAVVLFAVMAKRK

T2: TLT-1 receptor on the surface of activated human platelets (human, UniProt Q86YW5 16-311)
T2 sequence: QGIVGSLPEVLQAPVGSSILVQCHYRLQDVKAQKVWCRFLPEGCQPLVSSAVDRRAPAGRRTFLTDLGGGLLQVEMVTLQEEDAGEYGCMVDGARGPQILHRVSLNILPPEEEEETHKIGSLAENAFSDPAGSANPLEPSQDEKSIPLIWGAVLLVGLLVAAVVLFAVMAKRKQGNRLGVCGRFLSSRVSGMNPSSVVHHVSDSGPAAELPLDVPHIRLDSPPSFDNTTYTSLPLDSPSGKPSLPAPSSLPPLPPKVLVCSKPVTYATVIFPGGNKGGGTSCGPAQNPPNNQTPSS

B1: Fab 0052-LC-L4a-TF;VH-CH1-HPC4 (other)
light chain-linker-TF: DIQMTQTTSSLSASLGDRVTISCRASQDISNYLNWYQQKPDGTVKLLIFYTSRLHSGVPSRFSGSGSGTDYSLTISNLEPEDIATYYCQQDTKLPYTFGGGTKLEMKRTVAAPSVFIFPPSDEQLKSGTASVVCLLNNFYPREAKVQWKVDNALQSGNSQESVTEQDSKDSTYSLSSTLTLSKADYEKHKVYACEVTHQGLSSPVTKSFNRGECGSGGGGSGGGGSGGGGSSGTTNTVAAYNLTWKSTNFKTILEWEPKPVNQVYTVQISTKSGDWKSKCFYTTDTECDLTDEIVKDVKQTYLARVFSYPAGNVESTGSAGEPLYENSPEFTPYLETNLGQPTIQSFEQVGTKVNVTVEDERTLVRRNNTFLSLRDVFGKDLIYTLYYWKSSSSGKKTAKTNTNEFLIDVDKGENYCFSVQAVIPSRTVNRKSTDSPVECMGQEKGEFRE
VH-CH1-HPC4: QVQLQQSGAEPMKPGASVKISCKATGYTFSSHWIEWIKQRPGHGLEWIGEILPGSGNTNYNEKFKGKATFTADTSSNTAYMQLSSLTSEDSAVYCCARGYYGLNYDWYFDVWGAGTTVTVSSASTKGPSVFPLAPCSRSTSESTAALGCLVKDYFPEPVTVSWNSGALTSGVHTFPAVLQSSGLYSLSSVVTVPSSSLGTKTYTCNVDHKPSNTKVDKRVESKEDQVDPRLIDGK
B2: Fab 0051-VH-CH1-L4a-TF;LC-HPC4 (other)
VH-CH1-linker-TF: QVQLEQSGAELVRPGVSVKISCKGSGYTFTDYSMHWVKQSHAKSLEWIGVISTYYGDVRYNQKFKGKATMTVDKSSSTAYMALARLTSEDSAIYYCARAPMITTGAWFAYWGQGTLVTVSAASTKGPSVFPLAPCSRSTSESTAALGCLVKDYFPEPVTVSWNSGALTSGVHTFPAVLQSSGLYSLSSVVTVPSSSLGTKTYTCNVDHKPSNTKVDKRVESKGSGGGGSGGGGSGGGGSSGTTNTVAAYNLTWKSTNFKTILEWEPKPVNQVYTVQISTKSGDWKSKCFYTTDTECDLTDEIVKDVKQTYLARVFSYPAGNVESTGSAGEPLYENSPEFTPYLETNLGQPTIQSFEQVGTKVNVTVEDERTLVRRNNTFLSLRDVFGKDLIYTLYYWKSSSSGKKTAKTNTNEFLIDVDKGENYCFSVQAVIPSRTVNRKSTDSPVECMGQEKGEFRE
light chain-HPC4: SIVMTQTPKFLLVSAGDRVTITCKASQSVSNDVAWYQQKPGQSPKLLINYASSRYTGIPDRFTGSGYGTDFTFTISTVQAEDLAVYFCQQDYSSPYTFGGGTKLEIERTVAAPSVFIFPPSDEQLKSGTASVVCLLNNFYPREAKVQWKVDNALQSGNSQESVTEQDSKDSTYSLSSTLTLSKADYEKHKVYACEVTHQGLSSPVTKSFNRGECEDQVDPRLIDGK
B3: Fab 0023-VH-CH1-L4a-TF;LC-HPC4 (other)
VH-CH1-linker-TF: EVRLVESGGGLVQPGGSLKLSCATSGFTFSDYFMYWIRQTPEKRLEWVAYISNGGDSSSYPDTVKGRFTISRDNAKNTLYLQMSRLKSEDTAMYYCATNKNWDDYYDMDYWGQGTSVTVSSASTKGPSVFPLAPCSRSTSESTAALGCLVKDYFPEPVTVSWNSGALTSGVHTFPAVLQSSGLYSLSSVVTVPSSSLGTKTYTCNVDHKPSNTKVDKRVESKGSGGGGSGGGGSGGGGSSGTTNTVAAYNLTWKSTNFKTILEWEPKPVNQVYTVQISTKSGDWKSKCFYTTDTECDLTDEIVKDVKQTYLARVFSYPAGNVESTGSAGEPLYENSPEFTPYLETNLGQPTIQSFEQVGTKVNVTVEDERTLVRRNNTFLSLRDVFGKDLIYTLYYWKSSSSGKKTAKTNTNEFLIDVDKGENYCFSVQAVIPSRTVNRKSTDSPVECMGQEKGEFRE
light chain-HPC4: DIVVSQSPSSLAVSAGEKVTMSCKSSQSLLNSRTRKNYLAWYQQKPGQSPKLLIYWASTRESGVPDRFTGSGSGTDFTLTISSVQAEDLAVYYCKQSYNLLTFGAGTKLELKRTVAAPSVFIFPPSDEQLKSGTASVVCLLNNFYPREAKVQWKVDNALQSGNSQESVTEQDSKDSTYSLSSTLTLSKADYEKHKVYACEVTHQGLSSPVTKSFNRGECEDQVDPRLIDGK
B4: Fab 0052-VH-CH1-L4a-TF;LC-HPC4 (other)
VH-CH1-linker-TF: QVQLQQSGAEPMKPGASVKISCKATGYTFSSHWIEWIKQRPGHGLEWIGEILPGSGNTNYNEKFKGKATFTADTSSNTAYMQLSSLTSEDSAVYCCARGYYGLNYDWYFDVWGAGTTVTVSSASTKGPSVFPLAPCSRSTSESTAALGCLVKDYFPEPVTVSWNSGALTSGVHTFPAVLQSSGLYSLSSVVTVPSSSLGTKTYTCNVDHKPSNTKVDKRVESKGSGGGGSGGGGSGGGGSSGTTNTVAAYNLTWKSTNFKTILEWEPKPVNQVYTVQISTKSGDWKSKCFYTTDTECDLTDEIVKDVKQTYLARVFSYPAGNVESTGSAGEPLYENSPEFTPYLETNLGQPTIQSFEQVGTKVNVTVEDERTLVRRNNTFLSLRDVFGKDLIYTLYYWKSSSSGKKTAKTNTNEFLIDVDKGENYCFSVQAVIPSRTVNRKSTDSPVECMGQEKGEFRE
light chain-HPC4: DIQMTQTTSSLSASLGDRVTISCRASQDISNYLNWYQQKPDGTVKLLIFYTSRLHSGVPSRFSGSGSGTDYSLTISNLEPEDIATYYCQQDTKLPYTFGGGTKLEMKRTVAAPSVFIFPPSDEQLKSGTASVVCLLNNFYPREAKVQWKVDNALQSGNSQESVTEQDSKDSTYSLSSTLTLSKADYEKHKVYACEVTHQGLSSPVTKSFNRGECEDQVDPRLIDGK
B5: Fab 0023-LC-L7-TF;VH-CH1-HPC4 (other)
light chain-linker-TF: DIVVSQSPSSLAVSAGEKVTMSCKSSQSLLNSRTRKNYLAWYQQKPGQSPKLLIYWASTRESGVPDRFTGSGSGTDFTLTISSVQAEDLAVYYCKQSYNLLTFGAGTKLELKRTVAAPSVFIFPPSDEQLKSGTASVVCLLNNFYPREAKVQWKVDNALQSGNSQESVTEQDSKDSTYSLSSTLTLSKADYEKHKVYACEVTHQGLSSPVTKSFNRGECGGGGSGGGGSGGGGSGSGGGGSGGGGSGGGGSSGTTNTVAAYNLTWKSTNFKTILEWEPKPVNQVYTVQISTKSGDWKSKCFYTTDTECDLTDEIVKDVKQTYLARVFSYPAGNVESTGSAGEPLYENSPEFTPYLETNLGQPTIQSFEQVGTKVNVTVEDERTLVRRNNTFLSLRDVFGKDLIYTLYYWKSSSSGKKTAKTNTNEFLIDVDKGENYCFSVQAVIPSRTVNRKSTDSPVECMGQEKGEFRE
VH-CH1-HPC4: EVRLVESGGGLVQPGGSLKLSCATSGFTFSDYFMYWIRQTPEKRLEWVAYISNGGDSSSYPDTVKGRFTISRDNAKNTLYLQMSRLKSEDTAMYYCATNKNWDDYYDMDYWGQGTSVTVSSASTKGPSVFPLAPCSRSTSESTAALGCLVKDYFPEPVTVSWNSGALTSGVHTFPAVLQSSGLYSLSSVVTVPSSSLGTKTYTCNVDHKPSNTKVDKRVESKEDQVDPRLIDGK
B6: Fab 0023-LC-L8-TF;VH-CH1-HPC4 (other)
light chain-linker-TF: DIVVSQSPSSLAVSAGEKVTMSCKSSQSLLNSRTRKNYLAWYQQKPGQSPKLLIYWASTRESGVPDRFTGSGSGTDFTLTISSVQAEDLAVYYCKQSYNLLTFGAGTKLELKRTVAAPSVFIFPPSDEQLKSGTASVVCLLNNFYPREAKVQWKVDNALQSGNSQESVTEQDSKDSTYSLSSTLTLSKADYEKHKVYACEVTHQGLSSPVTKSFNRGECGGGGSGGGGSGGGGSGGGGSGSGGGGSGGGGSGGGGSSGTTNTVAAYNLTWKSTNFKTILEWEPKPVNQVYTVQISTKSGDWKSKCFYTTDTECDLTDEIVKDVKQTYLARVFSYPAGNVESTGSAGEPLYENSPEFTPYLETNLGQPTIQSFEQVGTKVNVTVEDERTLVRRNNTFLSLRDVFGKDLIYTLYYWKSSSSGKKTAKTNTNEFLIDVDKGENYCFSVQAVIPSRTVNRKSTDSPVECMGQEKGEFRE
VH-CH1-HPC4: EVRLVESGGGLVQPGGSLKLSCATSGFTFSDYFMYWIRQTPEKRLEWVAYISNGGDSSSYPDTVKGRFTISRDNAKNTLYLQMSRLKSEDTAMYYCATNKNWDDYYDMDYWGQGTSVTVSSASTKGPSVFPLAPCSRSTSESTAALGCLVKDYFPEPVTVSWNSGALTSGVHTFPAVLQSSGLYSLSSVVTVPSSSLGTKTYTCNVDHKPSNTKVDKRVESKEDQVDPRLIDGK
B7: Fab 0023-LC-L9-TF;VH-CH1-HPC4 (other)
light chain-linker-TF: DIVVSQSPSSLAVSAGEKVTMSCKSSQSLLNSRTRKNYLAWYQQKPGQSPKLLIYWASTRESGVPDRFTGSGSGTDFTLTISSVQAEDLAVYYCKQSYNLLTFGAGTKLELKRTVAAPSVFIFPPSDEQLKSGTASVVCLLNNFYPREAKVQWKVDNALQSGNSQESVTEQDSKDSTYSLSSTLTLSKADYEKHKVYACEVTHQGLSSPVTKSFNRGECGGGGSGGGGSGGGGSGGGGSGGGGSGSGGGGSGGGGSGGGGSSGTTNTVAAYNLTWKSTNFKTILEWEPKPVNQVYTVQISTKSGDWKSKCFYTTDTECDLTDEIVKDVKQTYLARVFSYPAGNVESTGSAGEPLYENSPEFTPYLETNLGQPTIQSFEQVGTKVNVTVEDERTLVRRNNTFLSLRDVFGKDLIYTLYYWKSSSSGKKTAKTNTNEFLIDVDKGENYCFSVQAVIPSRTVNRKSTDSPVECMGQEKGEFRE
VH-CH1-HPC4: EVRLVESGGGLVQPGGSLKLSCATSGFTFSDYFMYWIRQTPEKRLEWVAYISNGGDSSSYPDTVKGRFTISRDNAKNTLYLQMSRLKSEDTAMYYCATNKNWDDYYDMDYWGQGTSVTVSSASTKGPSVFPLAPCSRSTSESTAALGCLVKDYFPEPVTVSWNSGALTSGVHTFPAVLQSSGLYSLSSVVTVPSSSLGTKTYTCNVDHKPSNTKVDKRVESKEDQVDPRLIDGK

Tests used:
[1] = molecular target: T1, TLT-1 18-188 relipidated in 20:80 PS:PC …; experiment: cell-based or functional assay
[2] = molecular target: T2, TLT-1 receptor on the surface of …; experiment: cell-based or functional assay

| Binder | FVII-mediated FXa generation % Activity lipidated TLT-1 [1] | FVIIa-mediated FXa generation % Activity lipidated TLT-1 [1] | FVIIa-mediated FXa generation % Activity activated plts (n 1) [2] | FVII-mediated FXa generation % Activity activated plts (n 1) [2] |
| --- | --- | --- | --- | --- |
| B1 | 9% | 29% | 20% | – |
| B2 | 22% | 48% | 72% | 43% |
| B3 | 26% | 53% | 45% | 14% |
| B4 | 13% | 29% | 25% | 10% |
| B5 | 25% | 40% | 35% | 17% |
| B6 | 24% | 35% | 33% | 16% |
| B7 | 24% | 38% | 32% | 14% |
